Measurements published in patent US12516145B2 (priority 2019, dated 2026).
Each block holds one compound with its values, some of them ahead of it.

Assays:
[1] = cited from earlier work
trypsin [2] = test: Trypsin-induced cleavage (proteolytic resistance) by RP-HPLC; type: in vitro ADME; conditions: isolated enzyme trypsin; trypsin 0.1 μM, 200 μM peptide, PBS pH 7.4, 37 °C; read-out: peptide cleaved by trypsin within 1 h
Procedure: For protease-triggered cleavage experiments, the molar ratio of trypsin to peptide was set to 1:2000. Moreover, the temperature was set to 37° C. to match the body temperature. For example, poly[(KLAAm10-co-DMA30)-b-(DAAm70-co-DMA30)](NP1, 0.9 mg, 0.2 μmol with respect to peptides, 2000 equiv.) was dissolved in 1 ml of DPBS solution. […] During the cleavage, aliquots were taken for HPLC analysis at predetermined time points.

[3] = amine groups; cited from earlier work
HeLa cells [4] = test: CellTilter-Blue cell viability assay of KLA based materials (Example 1); design: species or system human; conditions: even at 100 μM with respect to peptide, 72 hours, 37 °C
Procedure: Hela cells were purchased from ATCC. Cells were cultured at 37° C. under 5% CO2 in phenol-red containing Dulbecco's Modified Eagle Medium (DMEM; Gibco Life Tech., cat. #11960-044) supplemented with 10% fetal bovine serum (Omega Scientific, cat. #11140-050), sodium pyruvate (Gibco Life Tech., cat. #35050-061), L-glutamine (Gibco Life Tech., cat. #35050-061), and the antibiotics penicillin/streptomycin (Corning Cellgro, cat. #30-002-C1). Cells were grown in T75 culture flasks and subcultured at ˜75-80% confluency.
The cytotoxicity of materials was assessed using the CellTilter-Blue assay. HeLa cells were plated at a density of 5000 cells per well in a 96 well plate 18 hours prior to treatment. Materials were dissolved in DPBS at the desired concentration and added to the wells along with a 10% DMSO positive control. Cells were incubated for 72 hours at 37° C. Note that the concentration of all the materials is with respect to the peptide concentration to ensure that all peptides and polymers are fairly compared with respect to their therapeutic components. The media was removed and 80 μL of new media without phenol red was added followed by adding 20 μL of CellTilter-Blue reagent. The cells were incubated for 3 hours at 37° C. The fluorescence was measured at 560 nm excitation and 590 nm emission wavelength.

thermolysin [5] = molecular target: T1, thermolysin (Bacillus thermoproteolyticus, UniProt P00800); conditions: for morphology change of micelles after treatment with thermolysin: TEM and DLS, spherical micelles before treatment
Procedure: Transmission Electron Microscope (TEM): Twenty microliters of sample were applied onto a 400 mesh carbon grids (Ted Pella, INC.). The grids were observed on a Hitachi HT 7700 microscope operating at 120 kV. The images were recorded with a slow-scan charge-coupled device (CCD) camera (Veleta 2k×2k).
Dynamic Light Scattering (DLS): DLS analysis was conducted at room temperature on a Zetasizer Nano-ZS (Malvern). The laser for DLS was at a wavelength of 633 nm.
(§1) For enzyme-triggered cleavage experiments, the molar ratio of thermolysin to peptide was set to 1:300. Moreover, the temperature was set to 55° C. to achieve the optimal activity of thermolysin. For example, poly(PepAm21-co-DMA24) (P4, 1 mg, 0.87 μmol with respect to peptides, 300 equiv.) was dissolved in 1 ml of DPBS solution. Then thermolysin (0.1 mg, 2.9 nmol, 1 equiv.) was added into the polymer solution which was stirred in a preheated oil bath at 55° C. In the case of control experiments which involved using deactivated thermolysin, EDTA (100 equiv. to thermolysin) was utilized to capture the zinc and calcium ions, resulting in denaturing of thermolysin.

[6] = Dynamic light scattering (hydrodynamic size); type: physicochemical; conditions: for hydrodynamic diameter / size by DLS: in water (DIW); for Dh: hydrodynamic diameter by DLS, photo-PISA at solids content of 15 wt. %; for Rh: hydrodynamic radius by DLS
Procedure: (§2) Dynamic Light Scattering (DLS) and Zeta Potential Analysis: DLS and zeta potential analyses were conducted at room temperature on a Zetasizer Nano-ZS (Malvern). The laser for DLS was at a wavelength of 633 nm.

thermolysin [7] = molecular target: T1, thermolysin; conditions: thermolysin 1/300 equiv. to peptides, 55 °C, DPBS, HPLC
Procedure: Analytical High-Performance Liquid Chromatography (HPLC): Analytical HPLC analysis of peptides was performed on a Jupiter 4μ Proteo 90A Phenomenex column (150×4.60 mm) using a Hitachi-Elite LaChrom L-2130 pump equipped with UV-Vis detector (Hitachi-Elite LaChrom L2420).
as §1

[8] = Transmission electron microscopy (particle size); type: physicochemical; conditions: for Rcore: estimated by TEM analysis
Procedure: Dry-State Transmission Electron Microscopy (TEM): Twenty microliters of samples were applied onto a 400 mesh carbon grids (Ted Pella, INC.). The grids were observed on a Hitachi HT 7700 microscope operating at 120 kV. The images were recorded with a slow-scan charge-coupled device (CCD) camera (Veleta 2k×2k).

HeLa cells [9] = test: Flow cytometry for uptake ability in HeLa cells (Example 1); type: cell-based, human; conditions: rhodamine B-labeled, 0.25 μM with respect to dye, 24 hours
Procedure: Flow Cytometry: The cell uptake study was analyzed via flow cytometry using a BD FacsAria Ilu 4-Laser flow cytometer (Becton Dickinson Inc., USA). Mean fluorescence intensity and PE-A-histogram data was prepared for presentation using FlowJo v10.
For cellular uptake measurements, HeLa cells were plated in 12-well plates at a density of 1,000,000 per well and incubated for 24 hours in a 5% CO2 atmosphere at 37° C. 500 μL of 0.25 μM (with respect to rhodamine) KLA peptide, poly(KLAAm25-co-DMA75), poly(KLAAm25-co-DMA25), and poly(KLAAm10) in 10% FBS DMEM media without phenol red were incubated with the cells for 24 hours respectively. After triple washing with DPBS, 500 μL of 0.25% Trypsin-EDTA was added to each well for 10 min at 37° C. Cells were fixed with a 4% paraformaldehyde solution for 15 min at room temperature.

HeLa cells [10] = test: CellTiter-Blue cell viability assay of nanoparticles (Example 2); type: cell-based, human; conditions: 72 h; for cytotoxicity in HeLa cells: 37 °C, concentration with respect to total KLA peptide content
Procedure: Fluorescence Measurement: CellTiter-Blue® fluorescence measurements were recorded using a Perkin Elmer EnSpire multimode Plate Reader.
HeLa cells were grown in Dulbecco's modified Eagle medium (DMEM) supplemented with 10% fetal bovine serum (FBS), 1% penicillin-streptomycin. Cells were maintained at 37° C. and 5% CO2 with a relative humidity of 95%. HeLa cells were plated in 96-well plates at a density of 5000 per well and then left to attach for 24 h. Subsequently, the cells were treated with the polymers of various concentrations for the desired time followed by washing 3 times with PBS. Then CellTiter-Blue® at 10% (v/v) in complete media was added to each well and incubated for 2 h to allow the live cells to convert resazurin to fluorescent resorufin. The fluorescent signal (Excitation wavelength: 560 nm; Emission wavelength: 600 nm) was then analyzed by a plate reader. Three replicates were performed for each independent sample. 10% DMSO was used as a positive control and untreated cells in complete medium as a negative control. Viability is reported as a percentage of untreated cells.

[11] = tested on: mitochondrial membrane potential of HeLa cells; test: Mitochondria membrane potential of HeLa cells with JC-1 probe; type: cell-based, human; conditions: 2 μM JC-1, excitation 488 nm, NP5 even after 30 min incubation
Procedure: HeLa cells were plated in 4-well, glass bottom dishes at 30,000 cells per well in 500 μL medium. […] The cells were stained with 2 μM of JC-1 at 37° C. for 15 minutes, washed with PBS to remove any membrane-bound, non-internalized fluorophores, and returned to complete medium. For the positive control group, the cells were incubated with 50 μM CCCP and 2 μM of JC-1 probe in DPBS solution simultaneously for 15 min. Before the confocal observation, 1 drop of Hoechst 33342 dye was added to stain the nuclei. Confocal microscope was employed to observe the fluorescence of JC-1 monomer, J-aggregates and Hoechst dye.

Zeta potential analysis = type: physicochemical; conditions: room temperature
Procedure: as §2

thermolysin [12] = test: thermolysin in DPBS solution, molar ratio of thermolysin to peptide 1:300; conditions: 55° C.
trypsin [13] = test: trypsin (0.1 μM) in PBS buffer (pH=7.4), molar ratio of trypsin to peptide 1:2000; conditions: 37° C.

T1 sequence (P00800 233-548): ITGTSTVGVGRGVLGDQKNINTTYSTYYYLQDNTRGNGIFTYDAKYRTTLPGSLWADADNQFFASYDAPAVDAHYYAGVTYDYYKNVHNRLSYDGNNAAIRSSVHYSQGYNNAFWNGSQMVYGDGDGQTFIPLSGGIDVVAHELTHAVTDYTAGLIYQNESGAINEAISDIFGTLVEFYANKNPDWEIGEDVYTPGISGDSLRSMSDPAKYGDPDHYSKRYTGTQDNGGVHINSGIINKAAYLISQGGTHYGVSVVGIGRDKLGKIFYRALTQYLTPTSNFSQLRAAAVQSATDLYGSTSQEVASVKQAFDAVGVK

Compound: C=CC(=O)NCCCCCC(=O)N[C@@H](CCCCN)C(=O)N[C@@H](CC(C)C)C(=O)N[C@@H](C)C(=O)N[C@@H](CCCCN)C(=O)N[C@@H](CC(C)C)C(=O)N[C@@H](C)C(=O)N[C@@H](CCCCN)C(=O)N[C@@H](CCCCN)C(=O)N[C@@H](CC(C)C)C(=O)N[C@@H](C)C(=O)N[C@@H](CCCCN)C(=O)N[C@@H](CC(C)C)C(=O)N[C@@H](C)C(=O)N[C@@H](CCCCN)C(N)=O [KLAAm]
maximum concentration in water [1]: about 100 mM
metabolised at 1 h, 200 μM (trypsin [2]): 100%
pKa [3]: 9
cytotoxicity to HeLa cells (HeLa cells [4]): did not exhibit cytotoxicity

Compound: PMMA90-b-poly(PepAm9-co-DMA30) [P7]
morphology change of micelles after treatment with thermolysin (thermolysin [5]): transition from spherical micelle to fused worm micelles

Compound: poly(PepAm21-co-DMA71) [P4]
hydrodynamic diameter / size by DLS [6]: < 10 nm
time within which thermolysin-induced peptide cleavage was complete (thermolysin [7]): ≤ 1 h

Compound: CC(C)C[C@H](NC(=O)[C@H](CCCCN)NC(=O)[C@H](C)NC(=O)[C@H](CC(C)C)NC(=O)[C@H](CCCCN)NC(=O)[C@H](CCCCN)NC(=O)[C@H](C)NC(=O)[C@H](CC(C)C)NC(=O)[C@H](CCCCN)NC(=O)[C@H](C)NC(=O)[C@H](CC(C)C)NC(=O)[C@@H](N)CCCCN)C(=O)N[C@@H](C)C(=O)N[C@@H](CCCCN)C(N)=O [KLA peptide, KLAKLAKKLAKLAK, reference compound]
metabolised at 1 h, 200 μM (trypsin [2]): 100%
cytotoxicity to HeLa cells (HeLa cells [4]): did not exhibit cytotoxicity

Compound: PMMA90-b-poly(PepAm21-co-DMA63) [P8]
diameter / average size by TEM ([8]; dry-state TEM): 24 nm
morphology change of micelles after treatment with thermolysin (thermolysin [5]): phase transition into a worm-like phase
change in particle diameter with deactivated thermolysin (thermolysin [5]; thermolysin pretreated with ethylenediaminetetraacetic acid, same cleavage conditions, DLS): no change in diameter
hydrodynamic diameter / size by DLS [6]: 28 nm

Compound: poly(KLAAm25-co-DMA25)
cellular uptake by flow cytometry (HeLa cells [9]): clearly outperformed more sparsely grafted polypeptide brushes

Compound: PnBA200-b-poly(PepAm36-co-DMA123) [P9]
morphology change of micelles after treatment with thermolysin (thermolysin [5]): transition from spherical micelle to a mixture of micelles and fiber structure

Compound: poly(PepAm6-co-DMA7) [P1]
time within which thermolysin-induced peptide cleavage was complete (thermolysin [7]): ≤ 1 h

Compound: poly[(KLAAm10-co-DMA10)-b-(DAAm280-co-DMA120)] (KLAKLAKKLAKLAK) [NP5, KLA peptide brush polymer nanoparticle]
Dh [6]: 92 nm
cytotoxicity in HeLa cells (HeLa cells [10]): dose-dependent cytotoxicity
toxicity compared between nanoparticles (HeLa cells [10]; HeLa cells): significantly higher than NP3
red fluorescence of JC-1 J-aggregates (mitochondrial membrane potential) [11]: almost no red emission

Compound: poly[(KLAAm10-co-DMA30)-b-(DAAm280-co-DMA120)] (KLAKLAKKLAKLAK) [NP3, KLA peptide brush polymer nanoparticle]
Rcore [8]: 46 nm
Dh [6]: 105 nm
Rh [6]: 52 nm
cytotoxicity in HeLa cells (HeLa cells [10]): dose-dependent cytotoxicity
Zeta potential (Zeta potential analysis): 48 mV

Compound: poly[(KLAAm10-co-DMA10)-b-(DAAm140-co-DMA60)] (KLAKLAKKLAKLAK) [NP4, KLA peptide brush polymer nanoparticle]
Dh [6]: 64 nm

Compound: NP2: KLA peptide brush polymer nanoparticle: shell KLAAm 10, DMA 30; core DAAm 140, DMA 60 (KLAKLAKKLAKLAK)
Rcore [8]: 28 nm
Dh [6]: 62 nm
Rh [6]: 31 nm
Zeta potential (Zeta potential analysis): 56 mV

cleaved bond (thermolysin [12]): glycine (G)-leucine (L)
Compound: GPLGLAGG

fragment found (trypsin [13]): LAK
Compound: KLAKLAKKLAKLAK

Compound: poly(KLAAm10)
cellular uptake by flow cytometry (HeLa cells [9]): clearly outperformed more sparsely grafted polypeptide brushes

Compound: poly[(KLAAm10-co-DMA30)-b-(DAAm70-co-DMA30)] (KLAKLAKKLAKLAK) [NP1, KLA peptide brush polymer nanoparticle]
Rcore [8]: 13 nm
Dh [6]: 36 nm
Rh [6]: 18 nm
Zeta potential (Zeta potential analysis): 47 mV
